Results on one substance are retold here after article PMC11103110.

By stoichiometry N is commonly meant the number of molecules, sites or subunits per partner or assembly.

Assay [1] deals with Lotus japonicus phytoglobin LjGlb3-1, recombinant (Lotus japonicus) (UniProt P0DO64). Nature of the assay: SDS-PAGE with immunoblot (anti-NO2-Tyr and protein-specific antibodies); recombinant protein (20 μM in the methods, 5–10 μM in the legend) incubated with 500 μM SIN-1 (peroxynitrite generator) for 2 h at 30 °C in 50 mM KPi pH 7.4; 15% SDS-PAGE. On the technique in general: A western blot detects proteins with antibodies after separation by electrophoresis.

Assay [2] shares this target. Nature of the assay: SDS-PAGE under non-reducing conditions with Coomassie staining and immunoblot; recombinant protein (20 μM in the methods, 10 μM in the legend) untreated, with 500 μM DTT or with 200–500 μM H2O2, 1 h, 50 mM KPi pH 7.4; 15% SDS-PAGE; DTT made the dimer almost totally disappear, H2O2 caused partial dimerization.

In the case of “Lotus japonicus phytoglobin LjGlb3-1, recombinant (from UniProt P0DO64 1-168) (natural protein)”, the stoichiometry N in assay [1] and in assay [2] was 2 each time.
